In US20260248917A1, “BICYCLIC PEPTIDE LIGANDS SPECIFIC FOR EPHA2 AND USES THEREOF” (BicycleTx Limited, priority 2019, published 2026):

Legend:
Assay type in all cases: physicochemical
[1] = pH of bulk or reconstituted solution; settings: 4 mg/mL bulk solution
Protocol: (§1) The bulk solution appearance, pH, density and BT5528 assay/related substances were recorded. Additional samples were subjected to three freeze (−20° C.)/thaw cycles, assessing appearance, pH, UPLC and sub-visible particulates (MFI) after each cycle.
(§2) The lyophilized product was placed on stability and tested for 1 month (according to Table 1-9) at accelerated storage of 25° C./60% RH. The lyophilized product was assessed by means of appearance, moisture content, and assay and related substances by UPLC. The reconstituted product was assessed on the basis of reconstitution time, solution appearance, pH and sub-visible particulates (T=0 only).

[2] = Reconstitution time of lyophilized product; settings: 21.2 mg/vial reconstituted with 5.3 mL 0.02 M HCl, versus 0.01 M HCl
Protocol: as §2
Formulations 1 to 4 had significant adsorptive properties with the drug product adsorbing onto the glass vial above and in the reconstituted solution. Formulation 5 (2 mg/mL BT5528) produced the best results with drug product adsorbing only slightly above the solution and no adsorption noted within the solution. Variability in reconstitution time derives from the analytical procedure deviating throughout the testing of formulation 1. This occurred due to the severe adsorptive nature of formulation 1. For the 4 mg/mL solution agitation occurred immediately after addition of reconstitution medium producing a severe adsorptive spread above the solution. A settle period before agitation was performed for the 2 mg/mL producing a better reconstitution performance although adsorption was still noted. For the 1.3 mg/mL solution a settle period of 5 minutes was performed to minimize the agitation required. […]

[3] = Appearance of solution (bulk or reconstituted), visual; settings: 4 mg/mL bulk solution
Protocol: as §1, §2

[4] = Density of final solution; settings: filtered 4 mg/mL solution
Protocol: as §1
The pH of the solution was measured and adjusted to target (pH 6.8-7.2). The pH was 7.79 pH after the addition of API and was adjusted to 7.19 pH using 0.1 M HCl solution. The solution was transferred to a 20 mL volumetric flask and make to final volume with WFI. The solution was filtered through a single 0.22 μm, PES membrane syringe filter. The final solution was a clear, colourless solution which was free from any visible particulates. The density of the final solution was measured, 1.025 g/cm^3. A pre- and post-filtration sample was passed to analytical for HPLC analysis. The remaining bulk solution was filled in 2 mL volumes into 2 mL glass vials and subjected to three, freeze/thaw cycles.

Substance “BT5528: Bicycle toxin conjugate; TATA scaffold; peptide ligand (β-Ala)-Sar10-A(HArg)D-Ci(HyP)LVNPLCiiLHP(D-Asp)W(HArg)Ciii (SEQ ID NO: 1)” has a pH ([1]; Freeze Thaw Cycle 1) of 7.3, a pH ([1]; Freeze Thaw Cycle 2) of 7.3 and a pH ([1]; Freeze Thaw Cycle 3) of 7.3. The pH ([1]; Pre Filtration) was 7.2, the “reconstitution time and appearance of the reconstituted product (oily droplet formation)” value [2] was “improved” and the Appearance ([3]; Freeze Thaw Cycle 1 (−20° C.)) was “Clear, colourless solution free”. For the same substance, the Appearance ([3]; Freeze Thaw Cycle 2) was “Clear, colourless solution free”, the Appearance ([3]; Freeze Thaw Cycle 3) was “Clear, colourless solution free” and the Appearance ([3]; Post Filtration) was “Clear, colourless solution free”. The Appearance ([3]; Pre Filtration) was “Clear, colourless solution free” and the “density of the final solution” value [4] was 1.025 g/mL.
